Measurements reported in US20260035452A1 (THE UNIVERSITY OF BIRMINGHAM, priority 2022, published 2026).

Assays:
dorsal air pouch of mice = experiment: In vivo air pouch model; conditions: 1 μg/mice into air pouch, 24 h
Description: FIG. 3: Mice were treated with IL-17 vehicle (Ctrl), IL-17 (1 μg/mice) alone (IL-17) or peptide (FM-0410) (1 μg/mice) and thereafter total cell number from pouches inflammatory exudates was evaluated at 24 h. Data were expressed as millions of cells for pouch and presented as means±S.D. of n=7 mice per group. Statistical analysis was conducted by one-way ANOVA followed by Bonferroni's for multiple comparisons. ^##P≤0.01, ^###P≤0.005 vs Ctrl group; *P≤0.05 vs IL-17 group.
FIG. 4: Inflammatory supernatants obtained from the pouch cavities were assayed using a Proteome Profiler Cytokine Array for Ctrl, IL-17 and FM-0410 experimental group. Densitometric analysis is presented as heatmap. Data (expressed as INT/mm2) are presented as means±S.D. of positive spots of three independent experiments run each with n=7 mice per group.
FIG. 5: Mice were treated with IL-17 vehicle (Ctrl), IL-17 (1 μg/mice), or peptide (FM-0410) (1 μg/mice) and inflammatory fluids were assayed by Elisa for IL-6. Data were expressed as pg/ml and presented as means±S.D. of n=7 mice per group. Statistical analysis was conducted by one-way ANOVA followed by Bonferroni's for multiple comparisons. ^##P≤0.01 vs CTRL group. […]
Specifically, dorsal air pouches were prepared by injection of 2.5 ml of air on day 0 and day 3 as previously described (Maione et al., 2009). […] Inflammatory exudates were collected and measured to evaluate the level of inflammatory cyto-chemokines. Cell number was determined by TC20 automated cell counter (Bio-Rad, Milan, Italy) using Bio-Rad's TC20 automated cell counter uses disposable slides, TC20 trypan blue dye (0.4% trypan blue dye w/v in 0.81% sodium chloride and 0.06% potassium phosphate dibasic solution) and a CCD camera to count cells based on the analyses of capture images (Maione et al., 2018).
Methods: The levels of IL-6 in the cellular and air pouch inflammatory supernatants at 24 h were measured using commercially available enzyme-linked immunosorbent assay kit (ELISA kit, R&D System, Milan, Italy) according to the manufacturer instructions. […]

[1] = system: hPBMC on cytokine-stimulated HDBEC monolayers; experiment: Human PBMC static adhesion / transendothelial migration assay; format: cell-based; conditions: co-treatment plus TNF-α
Description: FIG. 10: Human dermal blood endothelial cells (HDBEC) were treated with: IL-17 vehicle (Ctrl), IL-17 or FM-0410 (100 ng/ml), alone or in combination with TNF-α (100 U/ml) for 24 h. Cells were washed, gated in their totality and singlet before the identification of IL-17Rs (RA and RC) (A, B), ICAM (C) and VCAM (D) expression. Histogram values (expressed as MIF) indicate the total positive cells (A-D). In (E) are shown phase-contrast micrographs of confluent monolayers of untreated or treated (as reported before) HDBEC. Total adhesion (expressed as INT/mm^2, F) and % of transmigration (G) are calculated with Image Pro programme (DataCell, Finchampstead). Inflammatory supernatants from all experimental conditions were assayed by Elisa for IL-6 (H) expressed in pg/ml. Data were presented as means±S.D. of n=3 healthy donors. […]
Human PBMC transendothelial migration assay: Prior to beginning the assay, HDBEC monolayers were washed with 37° C. medium 199 (Thermo Fisher Scientific) supplemented with 0.15% w/v BSA (MilliporeSigma) to remove any residual cytokines. hPBMC (1×10^6) were co-cultured with cytokine-stimulated HDBEC monolayers at 37° C. for 20 min. […] Total hPBMC adhesion and mean percentage transmigration were calculated for each well.

B1: IL-17: recombinant mouse IL-17 purchased from R&D System; full-length cytokine used as comparator and stimulus (protein, UniProt Q62386 26-158, looked up)
Interleukin-17A: AAIIPQSSACPNTEAKDFLQNVKVNLKVFNSLGAKVSSRRPSDYLNRSTSPWTLHRNEDPDRYPSVIWEAQCRHQRCVNAEGKLDHHMNSVLIQQEILVLKREPESCPFTFRVEKMLVGVGCTCVASIVRQAA
Dorsal air pouch of mice
  cyto-chemokines profile of pouch fluid (Proteome Profiler Cytokine Array): significant increase of cyto-chemokines profile compared to ctrl group
  level of IL-6 in pouch fluids: increased level of IL-6 compared to control group
  number of inflammatory leukocytes (total cell number from pouch exudates): significant differences in the number of inflammatory leukocytes compared to control group
[1]
  total number of adhered hPBMC: significant increase
  transmigrated hPBMC: significant increase
